The record followed here is publication PMC3651167.

The target of the assay is wild-type rabbit PrP 121–230 (rabbit). The assay can be described thus: SEC. For orientation: Size exclusion chromatography separates by hydrodynamic size, large species first.

Sequence of wild-type rabbit PrP 121–230 (domain or fragment) (Q95211 119-229 limits assumed): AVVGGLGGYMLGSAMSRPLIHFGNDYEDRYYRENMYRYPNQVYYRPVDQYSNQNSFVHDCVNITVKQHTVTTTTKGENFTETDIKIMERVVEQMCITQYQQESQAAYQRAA

As a reminder, the stoichiometry N is the number of molecules, sites or subunits per partner or assembly. As to “wild-type rabbit PrP 121–230 (domain or fragment)”, the percent octamer after 4 hours is 33% and the stoichiometry N was determined as 8.
